Data taken from patent US7537762B2, “Human monoclonal antibodies to activin receptor-like kinase-1” (Amgen Fremont, Inc., priority 2005, dated 2009).
Substitutions are numbered along the chain they refer to.

Tests used:
[1] = molecular target: T1, Recombinant human ALK-1/FC chimera (Homo sapiens, UniProt P37023); assay: BIACORE cross-competition / epitope binning; type: binding; settings: panel of 14 antibodies, 50 nM, primary/secondary injections
T1 construct: purchased R&D Systems, Inc. 370-AL; host or cells: mouse myeloma cell line
Experimental: Cross-competition experiments were performed using the BIACORE® 3000 instrument (Biacore International AB, Uppsala, Sweden and Piscataway, N.J.), following the manufacturer's protocols.
Recombinant human ALK-1/FC chimera was immobilized onto the dextran layer of a CM5 biosensor chip using amine coupling. Chips were prepared using 10 mM acetate buffer pH 5.0 as the immobilization buffer and a protein density of 940 RU was achieved. Deactivation of unreacted N-hydroxysuccinimide esters was performed using 1 M ethanolamine hydrochloride, pH 8.5.
Purified mAbs were diluted to a concentration of 50 nM in HBS-EP running buffer (0.01 M HEPES pH 7.4, 0.15 M NaCl, 3 mM EDTA, 0.005% Polysorbate 20). A primary antibody was chosen and then injected across the flow cell for 600 seconds at a rate of 10 μL/min. After the injection was complete, a secondary antibody was chosen and injected across the same flow cell for 600 seconds at a rate of 10 μL/min. The sensor surface was regenerated by a 12 second injection of 100 mM H3PO4 (25 μL/min).
After regeneration, the primary antibody was again injected across the flow cell for 600 seconds at a rate of 10 μL/min. […] Threshold values were determined by using the same antibody as both the primary antibody and secondary antibody. […]

[2] = molecular target: T2, recombinant human ALK-1/Fc fusion protein (hALK-1/Fc) (Homo sapiens, UniProt P37023); assay: Avidity by surface plasmon resonance (BIACORE), immobilized hALK-1/Fc; type: binding; settings: SPR, dissociation monitored 10 minutes
T2 construct: purchased R&D Systems, Inc. 370-AL; host or cells: mouse myeloma cell line
Experimental: Avidity measures of purified anti-ALK-1 antibodies by surface plasmon resonance using the BIACORE® 3000 instrument were performed as follows using the manufacturer's protocols.
To perform kinetic analyses, recombinant human ALK-1/Fc fusion protein (hALK-1/Fc) and cynomologus ALK-1/Fc fusion protein (cALK-1/Fc) were immobilized on separate flow cells of a CM5 BIAcore sensor chip using routine amine coupling. […] Deactivation of unreacted N-hydroxysuccinimide esters was performed using 1 M ethanolamine hydrochloride, pH 8.5. Antibody samples in running buffer were prepared at concentrations ranging from 0.125 to 2 nM (a 0 nM solution comprising running buffer alone was included as a zero reference). Samples were randomized and injected in duplicate for 10 minutes each across all 4 flow cells using HBS-EP (10 mM HEPES pH 7.4, 150 mM NaCl, 3 mM EDTA, 0.005% Surfactant P20) as running buffer. […] A flow rate of 25 μL/min was used to determine avidity values. The dissociation of the antibody was monitored for 10 minutes, the surface regenerated by a 12 second injection of 100 mM H3PO4 (25 μL/min). The raw data were processed using the Scrubber (©BioLogic Software) software package and analyzed using the CLAMP (©BioLogic Software) software package. […]

[3] = tested on: human vessels (human CD-31); assay: Collagen model in human foreskin-SCID chimera mice, human CD-31 staining; type: in vivo, human foreskin-SCID chimera mouse; settings: 3.0 mg/ml Collagen, no HMVEC, 100 μg/ml id. injection
Description: Upon arrival from National Disease Research Institute and Cooperative Human Tissue Network, human foreskin pieces were trimmed of unhealthy regions and transferred to RPMI media (CELLGRO®/Mediatech, Cat# MT-15-040-CV supplemented with Penicillin and Streptamycin (GIBCO®/Life Tech, Cat# 15070-063) (add 5 mLs of the pen/strep stock solution into 500 mLs of RPMI). Using a scalpel and cutting in sterile petri dish, the skins were trimmed to an oval shape of approximately 8×13 mm cleaning any ragged ends and connective tissues, and stored on wet ice prior to surgery. The appropriate volume (4 μL/gram of animal) of 100 mg/mL (KeTASET®(ketamine), Fort Dodge Animal Health)/1 mg/mL medetomidine (Pfizer Animal Health-DORMITOR®(medetomidine)) solution was intraperitoneally injected into scid mouse abdomen (i.e., at a 45° angle, under skin but not too deep internally). Once anesthetized, the mice were applied with eye lubricant, a subcutaneuosly injection of Ketoprofen (10 mg/kg, Fort Dodge Animal Health) and hair was shaved over the site of the surgery. […] Complete healing occurred between 21-28 days after which time skins were ready to be inoculated with tumor cells.

monomeric ALK-ECD = molecular target: T3, monomeric ALK-ECD (Homo sapiens, UniProt P37023); assay: Affinity constants of representative mAbs by SPR (BIACORE), Example 8; type: binding; settings: mAb immobilized (200-400 RU), monomeric ALK-ECD 3.125-400 nM, different ECD preparation than Example 7
T3 construct: made in house; host or cells: 293T cells, transient, secreted (pSecTag2/Hygro)
Experimental: Affinity measures (KD and koff) of purified anti-ALK-1 antibodies by surface plasmon resonance using the BIACORE® 3000 instrument were performed as follows using the manufacturer's protocols.
To perform kinetic analyses, affinity-purified mAbs were immobilized onto the dextran layer of a CM5 biosensor chip using amine coupling. Surfaces were prepared using 10 mM acetate buffer pH 5.0 as the immobilization buffer and protein densities of 200-400 RU were achieved. Deactivation of unreacted N-hydroxysuccinimide esters was performed using 1 M ethanolamine hydrochloride, pH 8.5. Samples of monomeric ALK-ECD in running buffer were prepared at concentrations ranging from 3.125-400 nM (a 0 nM solution comprising running buffer alone was included as a zero reference). Samples were randomized and injected in duplicate for 2 minutes each across all 4 flow cells using HBS-EP (10 mM HEPES pH 7.4, 150 mM NaCl, 3 mM EDTA, 0.005% Surfactant P20) as running buffer. […] Dissociation of monomeric ALK-ECD was monitored for 10 minutes, the surface regenerated by a 12 second injection of 100 mM H3PO4 (25 μL/min). The raw data were processed using the Scrubber (©BioLogic Software) software package and analyzed using the CLAMP (©BioLogic Software) software package. The data were fit globally to a simple 1:1 Langmuir binding model.

B1: 1.11.1: human anti-ALK-1 monoclonal antibody; VH SEQ ID NO: 10, VL SEQ ID NO: 12 (antibody, V domains shown)
VH: QVQLVESGGGVVQPGRSLRLSCAASGFTFSSHGMYWVRQAPGKGLEWVAAIWYDGSNKYYADSVKGRFTISRDNSKNTLYLQMNSLRAEDTAVYYCARDQEQWPDVFDIWGQGTMVTVSS
VL: DIQMTQSPSSLSASVGDRVTITCRASQGIRNYLAWFQQKPGKAPKSLIYGASSLQSGVPSKFSGSGSGTDFTLTISSLQPEDFATYYCQQYNSYPLTFGGGTKVEIK
modifications: Human
[1]
  epitope bin: in one bin

B2: 1.162.1: human anti-ALK-1 monoclonal antibody; VH SEQ ID NO: 26, VL SEQ ID NO: 28 (antibody, V domains shown)
VH: QVQLQESGPGLVKPSQTLSLICTVSGGSISSGEYYWSWIRQHPGKGLEWIGYIYYSGSTYYNPSLKSRLTISVDTSKNQFSLKLSSVTAADTAVYYCAREGIGAFDIWGQGTMVTVSS
VL: EIVLTQSPGTLSLSPGERATLSCRASQSVSSSYLAWYQQKPGQAPRLLIYGASSRATGIPDRFSGSGSGTDFTLTIIRLDPEDFAVYYCQRYGSSPITFGQGTRLEIK
modifications: Human
[2]
  hALK-1/Fc koff: 1.1e-05 s⁻¹

B3: 1.14.1: human anti-ALK-1 monoclonal antibody; VH SEQ ID NO: 18, VL SEQ ID NO: 20 (antibody, V domains shown)
VH: QVQLQESGPGLVKPSETLSLTCTVSGGSVSSGDYYWNWIRQPPGKGLEWIGYIYYSGSTNYNPSLKSRVTISVDTSKNQFSLKLSSVTAADTAVYYCAREAVSAFDYWGQGTLVTVSS
VL: B2 VL with S32T, Y37H, A52V, T57S, I59V, I77S, D80E, R91Q
modifications: Human
[3]; 4 days of Rx
  Human vessel scoring: 44 ± 28 1 × 10^3
[3]; 4 days, control = isotype control antibody
  % of Control (human vessels): 59%

B4: 4.72.1: human anti-ALK-1 monoclonal antibody; VH SEQ ID NO: 66, VL SEQ ID NO: 68 (antibody, V domains shown)
VH: QVQLQESGPGLVKPSQTLSLTCTVSGGSISSGEYYWSWIRQHPGKGLEWIGYIFYSGSTYYNPSLKSRVTISLDTSKNQFSLKLSSVTAADTAVYYCARESTDGMDVWGQGTTVTVSS
VL: B2 VL with Q39R, A52V, I77S, D80E, R91Q, P96M
modifications: Human
Monomeric ALK-ECD
  off-rate: 2.5e-05 s⁻¹
  on-rate: 32000 M⁻¹ s⁻¹
